In the supplement of paper PMC10065799, “High-throughput profiling of sequence recognition by tyrosine kinases and SH2 domains using bacterial peptide display” (eLife, 2023):

How the values were obtained:
[1] = target: FGFR3 (UniProt P22607); assay: phosphorylation enrichment, bacterial display (enrichment ratio); higher = better substrate or ligand; peptides without Tyr show the background
[2] = target: EPHB2 (UniProt P29323); assay: as above
[3] = target: Jak2 (UniProt O60674); assay: as above
[4] = tested on: AncSZ; assay: as above
[5] = tested on: Fer (mouse); assay: as above
[6] = target: EPHB1 (UniProt P54762); assay: as above
[7] = tested on: c-Src; assay: as above
[8] = target: Hck (UniProt P08631); assay: as above
[9] = tested on: c-Abl (mouse); assay: as above
[10] = target: MERTK (UniProt Q12866); assay: as above
[11] = target: FGFR1 (UniProt P11362); assay: as above
[12] = target: Fyn (UniProt P06241); assay: as above
[13] = target: Fes (UniProt P07332); assay: as above
[14] = target: SHP2-C SH2; assay: SH2 binding enrichment of the phosphorylated peptide, bacterial display (enrichment ratio); higher = better substrate or ligand; peptides without Tyr show the background
[15] = target: c-Src SH2; assay: as above
[16] = target: Grb2 SH2 (UniProt P62993); assay: as above
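For SH2 binding enrichment of the phosphorylated peptide, bacterial display in this document: peptide library displayed on the E. coli surface as eCPX fusions, selected cells deep-sequenced, score is each peptide's frequency after selection divided by its frequency in the input.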
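For phosphorylation enrichment, bacterial display in this document: 11-residue human phosphosite peptides and single-mutation variants displayed on the E. coli surface, counted by deep sequencing, each peptide's frequency after selection divided by its frequency in the unselected input library; frequency after pTyr selection over input frequency; kinase dosed for 20-30% of maximal phosphorylation in three min.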

Chain of EPHB2 (P29323 whole entry, looked up): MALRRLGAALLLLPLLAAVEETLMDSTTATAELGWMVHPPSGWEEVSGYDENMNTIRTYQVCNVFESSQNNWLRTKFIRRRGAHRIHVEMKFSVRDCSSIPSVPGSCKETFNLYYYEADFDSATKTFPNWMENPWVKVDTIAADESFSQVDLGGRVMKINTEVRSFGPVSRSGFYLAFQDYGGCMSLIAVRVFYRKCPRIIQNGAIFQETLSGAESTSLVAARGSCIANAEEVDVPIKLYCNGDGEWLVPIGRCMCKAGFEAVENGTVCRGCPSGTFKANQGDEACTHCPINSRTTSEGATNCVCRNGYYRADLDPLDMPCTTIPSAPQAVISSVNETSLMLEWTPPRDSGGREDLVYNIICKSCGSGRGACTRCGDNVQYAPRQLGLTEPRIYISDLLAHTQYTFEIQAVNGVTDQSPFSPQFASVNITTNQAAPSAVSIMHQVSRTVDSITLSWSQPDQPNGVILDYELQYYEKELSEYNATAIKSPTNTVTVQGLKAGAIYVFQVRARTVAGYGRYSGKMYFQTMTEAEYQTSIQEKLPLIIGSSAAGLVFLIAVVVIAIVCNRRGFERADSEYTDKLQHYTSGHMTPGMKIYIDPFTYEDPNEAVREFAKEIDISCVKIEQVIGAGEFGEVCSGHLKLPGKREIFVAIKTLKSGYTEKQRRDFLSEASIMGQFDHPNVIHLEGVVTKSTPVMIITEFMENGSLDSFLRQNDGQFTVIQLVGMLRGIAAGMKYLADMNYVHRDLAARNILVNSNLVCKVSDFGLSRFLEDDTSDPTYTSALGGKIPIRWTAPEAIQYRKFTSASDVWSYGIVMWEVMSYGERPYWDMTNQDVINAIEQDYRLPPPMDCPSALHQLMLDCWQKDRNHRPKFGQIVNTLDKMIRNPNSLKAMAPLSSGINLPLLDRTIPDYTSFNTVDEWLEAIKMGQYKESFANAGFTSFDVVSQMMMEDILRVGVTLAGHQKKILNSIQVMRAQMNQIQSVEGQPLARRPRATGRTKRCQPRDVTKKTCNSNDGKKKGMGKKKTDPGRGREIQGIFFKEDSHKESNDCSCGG
Chain of Jak2 (O60674 whole entry, looked up): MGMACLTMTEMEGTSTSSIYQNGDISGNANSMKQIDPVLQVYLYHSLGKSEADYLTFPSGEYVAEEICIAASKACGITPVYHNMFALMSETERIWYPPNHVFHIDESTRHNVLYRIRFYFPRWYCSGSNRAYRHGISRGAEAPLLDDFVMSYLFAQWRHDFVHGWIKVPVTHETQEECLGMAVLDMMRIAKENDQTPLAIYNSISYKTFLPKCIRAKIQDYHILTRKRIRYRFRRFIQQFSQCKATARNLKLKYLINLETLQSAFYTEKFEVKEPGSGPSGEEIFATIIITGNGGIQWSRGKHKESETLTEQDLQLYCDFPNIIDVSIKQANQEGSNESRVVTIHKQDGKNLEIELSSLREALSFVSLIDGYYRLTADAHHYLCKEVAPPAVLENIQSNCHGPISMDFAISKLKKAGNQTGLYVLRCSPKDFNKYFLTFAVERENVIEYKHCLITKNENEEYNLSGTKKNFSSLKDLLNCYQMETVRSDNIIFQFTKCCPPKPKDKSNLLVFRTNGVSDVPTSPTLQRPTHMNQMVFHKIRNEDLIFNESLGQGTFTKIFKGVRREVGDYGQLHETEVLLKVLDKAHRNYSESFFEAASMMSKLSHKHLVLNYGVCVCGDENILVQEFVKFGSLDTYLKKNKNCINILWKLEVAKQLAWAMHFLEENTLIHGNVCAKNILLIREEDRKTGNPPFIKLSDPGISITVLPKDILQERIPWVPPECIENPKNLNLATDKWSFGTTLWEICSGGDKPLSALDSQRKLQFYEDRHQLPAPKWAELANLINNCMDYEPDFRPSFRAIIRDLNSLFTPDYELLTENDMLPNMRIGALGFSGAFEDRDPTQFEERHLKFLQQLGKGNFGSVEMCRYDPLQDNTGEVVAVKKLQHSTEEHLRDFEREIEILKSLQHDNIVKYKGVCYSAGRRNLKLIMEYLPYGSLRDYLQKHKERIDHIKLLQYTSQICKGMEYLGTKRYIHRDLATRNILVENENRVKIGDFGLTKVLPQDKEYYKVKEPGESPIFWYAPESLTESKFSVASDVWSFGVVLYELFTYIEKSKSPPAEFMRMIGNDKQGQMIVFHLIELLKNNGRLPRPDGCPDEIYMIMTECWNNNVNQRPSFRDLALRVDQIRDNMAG
Chain of FGFR1 (P11362 whole entry, looked up): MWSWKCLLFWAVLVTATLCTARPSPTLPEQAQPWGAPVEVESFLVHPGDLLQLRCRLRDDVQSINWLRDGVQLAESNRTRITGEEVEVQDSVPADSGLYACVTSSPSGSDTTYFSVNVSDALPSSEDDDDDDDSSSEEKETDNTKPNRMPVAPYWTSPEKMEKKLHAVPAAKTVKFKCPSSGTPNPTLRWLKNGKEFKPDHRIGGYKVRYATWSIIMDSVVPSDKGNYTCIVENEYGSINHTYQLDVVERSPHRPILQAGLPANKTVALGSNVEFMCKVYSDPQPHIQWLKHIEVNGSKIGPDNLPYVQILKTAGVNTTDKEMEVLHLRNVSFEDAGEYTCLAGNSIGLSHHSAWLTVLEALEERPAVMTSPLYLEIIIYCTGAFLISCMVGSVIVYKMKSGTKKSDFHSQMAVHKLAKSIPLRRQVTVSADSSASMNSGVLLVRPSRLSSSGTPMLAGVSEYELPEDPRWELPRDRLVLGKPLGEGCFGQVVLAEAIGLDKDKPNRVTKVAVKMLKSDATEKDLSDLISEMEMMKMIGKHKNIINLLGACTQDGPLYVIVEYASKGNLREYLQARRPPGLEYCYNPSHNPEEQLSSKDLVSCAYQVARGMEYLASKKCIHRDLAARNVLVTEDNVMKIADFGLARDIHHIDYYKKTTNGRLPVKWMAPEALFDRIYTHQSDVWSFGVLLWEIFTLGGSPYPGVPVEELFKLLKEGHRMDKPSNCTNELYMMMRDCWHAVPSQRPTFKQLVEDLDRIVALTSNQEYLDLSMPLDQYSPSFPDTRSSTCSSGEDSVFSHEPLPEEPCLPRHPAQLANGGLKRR
Chain of Fes (P07332 whole entry, looked up): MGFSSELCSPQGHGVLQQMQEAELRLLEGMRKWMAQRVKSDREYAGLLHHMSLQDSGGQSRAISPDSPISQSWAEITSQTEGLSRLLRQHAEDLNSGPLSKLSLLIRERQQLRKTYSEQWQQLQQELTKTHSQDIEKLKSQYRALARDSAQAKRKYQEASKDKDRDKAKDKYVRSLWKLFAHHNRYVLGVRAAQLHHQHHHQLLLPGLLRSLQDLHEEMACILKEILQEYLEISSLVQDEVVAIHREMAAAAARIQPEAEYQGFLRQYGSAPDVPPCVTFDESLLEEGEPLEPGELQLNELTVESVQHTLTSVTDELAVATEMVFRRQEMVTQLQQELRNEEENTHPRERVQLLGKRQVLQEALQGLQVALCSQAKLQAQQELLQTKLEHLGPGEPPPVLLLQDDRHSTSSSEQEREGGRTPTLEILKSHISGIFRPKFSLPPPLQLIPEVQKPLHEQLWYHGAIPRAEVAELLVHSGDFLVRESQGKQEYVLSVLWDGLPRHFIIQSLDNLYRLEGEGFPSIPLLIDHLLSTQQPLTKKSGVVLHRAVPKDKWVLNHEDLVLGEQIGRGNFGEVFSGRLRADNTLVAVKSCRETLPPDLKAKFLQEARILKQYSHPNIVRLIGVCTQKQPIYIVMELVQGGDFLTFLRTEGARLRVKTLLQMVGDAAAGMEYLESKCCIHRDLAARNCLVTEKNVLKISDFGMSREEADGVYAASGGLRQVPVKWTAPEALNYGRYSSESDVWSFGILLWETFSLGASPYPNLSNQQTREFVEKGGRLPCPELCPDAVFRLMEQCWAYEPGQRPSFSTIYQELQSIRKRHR
Chain of EPHB1 (P54762 whole entry, looked up): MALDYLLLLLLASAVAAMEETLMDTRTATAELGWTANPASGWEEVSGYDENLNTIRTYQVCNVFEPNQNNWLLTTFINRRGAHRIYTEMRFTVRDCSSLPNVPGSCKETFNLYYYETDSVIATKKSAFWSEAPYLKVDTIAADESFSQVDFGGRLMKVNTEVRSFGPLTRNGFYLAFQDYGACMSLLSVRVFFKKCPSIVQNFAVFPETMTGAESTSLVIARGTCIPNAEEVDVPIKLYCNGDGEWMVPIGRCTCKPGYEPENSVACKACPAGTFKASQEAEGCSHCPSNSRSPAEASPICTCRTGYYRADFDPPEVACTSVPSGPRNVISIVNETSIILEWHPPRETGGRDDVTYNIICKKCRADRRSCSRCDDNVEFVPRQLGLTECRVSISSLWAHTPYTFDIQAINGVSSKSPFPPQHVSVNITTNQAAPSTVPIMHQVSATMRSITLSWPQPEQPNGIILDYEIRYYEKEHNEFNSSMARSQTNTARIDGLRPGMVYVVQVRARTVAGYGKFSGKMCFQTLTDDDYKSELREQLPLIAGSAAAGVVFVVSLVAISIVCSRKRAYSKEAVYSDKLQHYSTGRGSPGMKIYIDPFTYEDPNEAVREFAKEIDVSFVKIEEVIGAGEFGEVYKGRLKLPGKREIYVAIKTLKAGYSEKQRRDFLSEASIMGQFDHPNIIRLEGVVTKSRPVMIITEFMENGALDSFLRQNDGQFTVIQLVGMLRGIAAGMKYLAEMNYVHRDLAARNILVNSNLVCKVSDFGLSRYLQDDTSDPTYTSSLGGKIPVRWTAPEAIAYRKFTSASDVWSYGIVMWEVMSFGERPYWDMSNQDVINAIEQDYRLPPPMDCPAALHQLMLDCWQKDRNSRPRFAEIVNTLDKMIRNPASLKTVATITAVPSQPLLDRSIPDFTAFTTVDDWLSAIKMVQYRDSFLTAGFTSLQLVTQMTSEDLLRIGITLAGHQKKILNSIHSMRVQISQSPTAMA
Chain of Grb2 SH2 (P62993 whole entry, looked up, the tested form may be a part): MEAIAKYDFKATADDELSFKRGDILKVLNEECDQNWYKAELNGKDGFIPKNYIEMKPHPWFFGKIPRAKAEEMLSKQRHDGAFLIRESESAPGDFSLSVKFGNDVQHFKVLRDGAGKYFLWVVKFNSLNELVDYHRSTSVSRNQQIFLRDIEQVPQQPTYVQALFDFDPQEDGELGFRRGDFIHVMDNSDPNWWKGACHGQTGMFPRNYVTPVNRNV

Sequence | phosphorylation enrichment [1] | phosphorylation enrichment [2] | phosphorylation enrichment [3] | phosphorylation enrichment [4] | phosphorylation enrichment [5] | phosphorylation enrichment [6] | phosphorylation enrichment [7] | phosphorylation enrichment [8] | phosphorylation enrichment [9] | phosphorylation enrichment [10] | phosphorylation enrichment [11] | phosphorylation enrichment [12] | phosphorylation enrichment [13] | SH2 binding enrichment [14] | SH2 binding enrichment [15] | SH2 binding enrichment [16]
KKKKQYKDKFL [CASK_Y708_YF] | 0.55 | 0.634 | 0.724 | 0.893 | 0.502 | 0.687 | 0.739 | 0.589 | 0.699 | 0.782 | 0.572 | 0.701 | 0.642 | 0.408 | 0.453 | 0.683
LTERGYSFVTT [ACTA1_Y200] | 1.17 | 0.95 | 1.1 | 1.4 | 0.823 | 0.796 | 0.657 | 0.708 | 0.941 | 0.769 | 0.927 | 0.582 | 1.41 | 6.24 | 7.8 | 0.794
HITQVYGFYDE [PPP2CA_Y127_Q122H] | 1.26 | 1.85 | 1.88 | 2.11 | 2.21 | 1.31 | 12.3 | 5.95 | 1.58 | 2.79 | 2.27 | 13.2 | 1.79 | 0.651 | 1.79 | 0.754
KFGTNYRVGSS [CPO_Y278_YF] | 0.567 | 0.382 | 0.767 | 1.04 | 0.418 | 0.422 | 0.466 | 0.465 | 0.725 | 0.508 | 0.509 | 0.444 | 0.803 | 0.914 | 0.586 | 1.23
QTSTDYDIRFF [CSNK2A1_Y131_L128S_YF] | 1.41 | 1.22 | 1.61 | 2.12 | 0.809 | 1.27 | 0.892 | 0.968 | 1.18 | 0.688 | 0.667 | 1.43 | 1.81 | 0.864 | 0.477 | 1.15
TVSTGYTQPQP [SARG_Y259_R258G] | 0.629 | 0.374 | 0.508 | 0.675 | 0.513 | 0.378 | 0.479 | 0.47 | 0.511 | 0.371 | 0.523 | 0.442 | 0.64 | 0.68 | 1.53 | 0.633
YQNGMYGLHQD [SGSH_Y89_H84Y] | 0.631 | 0.687 | 0.712 | 0.874 | 0.55 | 0.487 | 0.957 | 1 | 0.748 | 0.566 | 0.605 | 0.751 | 0.808 | 0.585 | 1.11 | 5.48
LERYIYNPEEF [HLA-DPB1_Y59_R61P] | 0.902 | 0.965 | 2.66 | 1.48 | 0.85 | 0.783 | 3.71 | 1.56 | 1.32 | 0.682 | 0.875 | 2.16 | 1.74 | 0.851 | 0.677 | 0.866
VCDSDYSASRW [LRP5_Y1552] | 0.684 | 0.877 | 0.731 | 1.16 | 0.455 | 0.691 | 0.518 | 0.518 | 0.737 | 0.382 | 0.449 | 0.603 | 1.02 | 0.697 | 0.586 | 0.979
NIQKKYFRAIL [CHD7_Y1217_YF] | 0.433 | 0.383 | 0.718 | 0.625 | 0.399 | 0.37 | 0.335 | 0.421 | 0.43 | 0.458 | 0.436 | 0.352 | 0.655 | 0.838 | 0.566 | 0.96
PRDGEYFTLQI [TP53_Y327_L323R] | 8.55 | 1.19 | 3.26 | 2.81 | 0.775 | 1.31 | 3.76 | 2.14 | 1.75 | 0.93 | 11.7 | 2.55 | 1.38 | 0.631 | 0.405 | 0.753
DLDLTSIYPNI [PTEN_Y27_Y27S] | 0.78 | 0.582 | 0.903 | 0.871 | 0.425 | 0.498 | 0.53 | 0.478 | 0.837 | 0.516 | 0.468 | 0.506 | 0.955 | 0.614 | 0.949 | 0.808
DQLVKYGVNPG [TMPO_Y127] | 0.49 | 0.325 | 0.479 | 0.553 | 0.356 | 0.467 | 0.294 | 0.363 | 0.475 | 0.314 | 0.292 | 0.369 | 0.605 | 0.498 | 0.539 | 0.888
KDYETYQPFQN [CTNND2_Y1157] | 0.801 | 7.67 | 0.883 | 1.72 | 1.47 | 3.29 | 4.83 | 6.07 | 0.846 | 0.514 | 0.686 | 6 | 1.17 | 0.664 | 0.43 | 0.887
PSRKDYETYQP [CTNND2_Y1154] | 0.695 | 2.62 | 0.677 | 1.04 | 0.485 | 1.49 | 0.62 | 0.873 | 0.95 | 0.6 | 0.592 | 0.55 | 1.02 | 0.818 | 0.597 | 0.905
TFRPPYYHRNC [HGD_Y333] | 0.486 | 0.474 | 0.686 | 0.721 | 0.375 | 0.506 | 0.559 | 0.524 | 0.599 | 0.498 | 0.497 | 0.562 | 0.878 | 1.86 | 1.18 | 1.38
NSIGNYFKPWF [DHCR24_Y299_YF] | 1.41 | 5.26 | 7.86 | 1.03 | 0.424 | 8.66 | 0.458 | 0.492 | 8.06 | 4.54 | 1.64 | 0.45 | 0.99 | 5.38 | 0.899 | 1.05
